The experiment has as its target T1, DCBLD2-FLAG-MYC (full-length human Discoidin, CUB, and LCCL domain-containing protein 2) (human, UniProt Q96PD2 67-775).
T1 construct: DCBLD2, human, full-length cDNA in pCMV6-Entry (OriGene RC224483); Expressed alone or together with ABL-FLAG or FYN; also called ESDN; source: HEK 293, transfected, in lysate; immunoprecipitated (alpha-FLAG or alpha-MYC) for the zebrafish extract experiment and the far-Western; not shown: FLAG, C-terminal, kept; MYC, C-terminal, kept
T1 sequence (looked up): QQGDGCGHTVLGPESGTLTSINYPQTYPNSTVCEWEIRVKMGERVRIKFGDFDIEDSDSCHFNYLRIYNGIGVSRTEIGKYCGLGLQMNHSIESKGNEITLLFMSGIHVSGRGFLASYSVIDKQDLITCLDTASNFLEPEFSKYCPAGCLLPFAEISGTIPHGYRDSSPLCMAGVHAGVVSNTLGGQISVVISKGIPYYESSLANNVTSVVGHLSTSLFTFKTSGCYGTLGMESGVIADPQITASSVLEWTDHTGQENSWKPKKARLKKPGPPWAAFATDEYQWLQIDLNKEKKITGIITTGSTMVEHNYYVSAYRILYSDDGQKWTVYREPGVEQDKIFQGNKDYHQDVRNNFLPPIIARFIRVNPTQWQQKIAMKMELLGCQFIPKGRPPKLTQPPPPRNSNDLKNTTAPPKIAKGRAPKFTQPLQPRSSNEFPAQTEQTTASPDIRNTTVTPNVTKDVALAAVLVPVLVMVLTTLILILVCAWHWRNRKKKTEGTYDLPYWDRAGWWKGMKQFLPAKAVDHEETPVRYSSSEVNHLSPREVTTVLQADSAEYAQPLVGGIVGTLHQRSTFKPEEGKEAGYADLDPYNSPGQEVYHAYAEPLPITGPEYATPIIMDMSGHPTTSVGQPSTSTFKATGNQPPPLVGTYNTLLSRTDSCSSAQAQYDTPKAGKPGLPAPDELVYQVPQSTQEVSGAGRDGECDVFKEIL
The experiment can be described thus: pull-down; GST-14-3-3 fusions on GSH beads rocked at 4 C with lysates of 293 cells expressing DCBLD2-FLAG-MYC alone or with ABL-FLAG; washed 3x with BCLB; Western blotting (alpha-MYC for DCBLD2). The conditions noted are these: one partner purified. On the technique in general: Immunoblotting shows a protein as a band on a membrane.

B1: GST-14-3-3σ (natural protein, UniProt P31947 1-248, looked up)
chain: MERASLIQKAKLAEQAERYEDMAAFMKGAVEKGEELSCEERNLLSVAYKNVVGGQRAAWRVLSSIEQKSNEEGSEEKGPEVREYREKVETELQGVCDTVLGLLDSHLIKEAGDAESRVFYLKMKGDYYRYLAEVATGDDKKRIIDSARSAYQEAMDISKKEMPPTNPIRLGLALNFSVFHYEIANSPEEAISLAKTTFDEAMADLHTLSEDSYKDSTLIMQLLRDNLTLWTADNAGEEGGEAPQEPQS
notes: 14-3-3σ, pGEX plasmid, gift of M. Yaffe; also called fusion of GSH S-transferase with 14-3-3σ; source: E. coli, purified on glutathione resin (kept on the beads for pull-down; eluted with GSH and dialyzed for far-Western)
As for B1, the binding result is “binds”.

B2: GST-14-3-3ζ (natural protein, UniProt P63104 1-245, looked up)
chain: MDKNELVQKAKLAEQAERYDDMAACMKSVTEQGAELSNEERNLLSVAYKNVVGARRSSWRVVSSIEQKTEGAEKKQQMAREYREKIETELRDICNDVLSLLEKFLIPNASQAESKVFYLKMKGDYYRYLAEVAAGDDKKGIVDQSQQAYQEAFEISKKEMQPTHPIRLGLALNFSVFYYEILNSPEKACSLAKTAFDEAIAELDTLSEESYKDSTLIMQLLRDNLTLWTSDTQGDEAEAGEGGEN
notes: 14-3-3ζ, pGEX plasmid, gift of M. Yaffe; also called fusion of GSH S-transferase with 14-3-3ζ; source: E. coli, purified on glutathione resin (kept on the beads for pull-down; eluted with GSH and dialyzed for far-Western)
As for B2, the binding result is recorded as “binds”.

B3: GST-14-3-3β (natural protein, UniProt P31946 1-246, looked up)
chain: MTMDKSELVQKAKLAEQAERYDDMAAAMKAVTEQGHELSNEERNLLSVAYKNVVGARRSSWRVISSIEQKTERNEKKQQMGKEYREKIEAELQDICNDVLELLDKYLIPNATQPESKVFYLKMKGDYFRYLSEVASGDNKQTTVSNSQQAYQEAFEISKKEMQPTHPIRLGLALNFSVFYYEILNSPEKACSLAKTAFDEAIAELDTLNEESYKDSTLIMQLLRDNLTLWTSENQGDEGDAGEGEN
notes: 14-3-3β, pGEX plasmid, gift of M. Yaffe; also called fusion of GSH S-transferase with 14-3-3β; source: E. coli, purified on glutathione resin (kept on the beads for pull-down; eluted with GSH and dialyzed for far-Western)
As for B3, the binding result was “binds”.

B4: GST-14-3-3ε (natural protein, UniProt P62258 1-255, looked up)
chain: MDDREDLVYQAKLAEQAERYDEMVESMKKVAGMDVELTVEERNLLSVAYKNVIGARRASWRIISSIEQKEENKGGEDKLKMIREYRQMVETELKLICCDILDVLDKHLIPAANTGESKVFYYKMKGDYHRYLAEFATGNDRKEAAENSLVAYKAASDIAMTELPPTHPIRLGLALNFSVFYYEILNSPDRACRLAKAAFDDAIAELDTLSEESYKDSTLIMQLLRDNLTLWTSDMQGDGEEQNKEALQDVEDENQ
notes: 14-3-3ε, pGEX plasmid, gift of M. Yaffe; also called fusion of GSH S-transferase with 14-3-3ε; source: E. coli, purified on glutathione resin (kept on the beads for pull-down; eluted with GSH and dialyzed for far-Western)
Take B4: the binding result is given as “binds”.

The values are drawn from paper PMC8015000, “FYN and ABL Regulate the Interaction Networks of the DCBLD Receptor Family” (Molecular & Cellular Proteomics : MCP, 2020).
